This note sets out measurements from PMC10630445, “RNA recognition by Npl3p reveals U2 snRNA-binding compatible with a chaperone role during splicing”.

The target of data set [1] is T1, Npl3 RRM1 (Saccharomyces cerevisiae, UniProt Q01560 114-201).
T1 sequence: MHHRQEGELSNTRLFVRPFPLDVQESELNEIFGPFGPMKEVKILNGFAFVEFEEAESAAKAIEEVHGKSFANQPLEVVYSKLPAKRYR
The data set can be described thus: ITC; ITC at 40 °C in NMR buffer: RRM1 and RRM1/2 25 mM Na2HPO4, 25 mM NaH2PO4 pH 6.9; RRM2 100 mM NaCl, 20 mM NaH2PO4 pH 5.5; NMR titrations at 40 °C (U2 SL I 1D spectra at 303 K). The following applies: protein: recombinant; (pET28a, nickel purification). Background: Isothermal titration calorimetry measures the heat released or taken up as one component is titrated into another.

Data set [2] addresses T2, Npl3 RRM1/2 (Saccharomyces cerevisiae, UniProt Q01560 114-282).
T2 sequence: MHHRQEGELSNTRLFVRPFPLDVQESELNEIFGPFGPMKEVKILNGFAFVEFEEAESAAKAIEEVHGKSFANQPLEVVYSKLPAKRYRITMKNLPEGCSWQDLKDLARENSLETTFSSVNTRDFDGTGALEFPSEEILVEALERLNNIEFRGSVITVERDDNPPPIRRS
The description is as above. The following applies: protein: recombinant; (pET28a, nickel purification).

Data set [3] deals with T3, Npl3 RRM1/2 Q214A (Saccharomyces cerevisiae, UniProt Q01560 114-282, Q214A).
T3 sequence: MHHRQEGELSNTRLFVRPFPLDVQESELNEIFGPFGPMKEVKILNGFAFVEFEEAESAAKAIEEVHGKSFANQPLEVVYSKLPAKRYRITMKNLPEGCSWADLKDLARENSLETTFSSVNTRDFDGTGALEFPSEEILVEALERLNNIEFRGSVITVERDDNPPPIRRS
The data set is described as above. The following applies: protein: recombinant; (pET28a).

For data set [4], the target named is T4, Npl3 RRM1/2 F229A (Saccharomyces cerevisiae, UniProt Q01560 114-282, F229A).
T4 sequence: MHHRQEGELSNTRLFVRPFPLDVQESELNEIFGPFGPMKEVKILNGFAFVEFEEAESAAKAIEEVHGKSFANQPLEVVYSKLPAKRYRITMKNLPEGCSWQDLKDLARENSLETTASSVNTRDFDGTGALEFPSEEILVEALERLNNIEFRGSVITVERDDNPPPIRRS
Described as above. The following applies: protein: recombinant; (pET28a).

Data set [5] addresses T5, Npl3 RRM1/2 R126A (Saccharomyces cerevisiae, UniProt Q01560 114-282, R126A).
T5 sequence: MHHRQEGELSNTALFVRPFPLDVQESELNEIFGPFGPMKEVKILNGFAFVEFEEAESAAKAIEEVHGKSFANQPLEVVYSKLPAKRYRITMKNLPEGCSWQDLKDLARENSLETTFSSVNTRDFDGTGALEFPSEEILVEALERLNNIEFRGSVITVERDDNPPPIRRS
The data set is described as above. The following applies: protein: recombinant; (pET28a).

For data set [6], the target named is T6, Npl3 RRM1/2 F128A (Saccharomyces cerevisiae, UniProt Q01560 114-282, F128A).
T6 sequence: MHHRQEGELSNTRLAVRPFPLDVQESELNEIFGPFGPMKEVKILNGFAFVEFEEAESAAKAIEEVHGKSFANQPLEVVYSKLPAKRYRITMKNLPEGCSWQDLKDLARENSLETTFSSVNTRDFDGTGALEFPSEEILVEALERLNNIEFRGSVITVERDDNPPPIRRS
Described as above. The following applies: protein: recombinant; (pET28a).

In data set [7] the target is T7, Npl3 RRM1/2 K217A (Saccharomyces cerevisiae, UniProt Q01560 114-282, K217A).
T7 sequence: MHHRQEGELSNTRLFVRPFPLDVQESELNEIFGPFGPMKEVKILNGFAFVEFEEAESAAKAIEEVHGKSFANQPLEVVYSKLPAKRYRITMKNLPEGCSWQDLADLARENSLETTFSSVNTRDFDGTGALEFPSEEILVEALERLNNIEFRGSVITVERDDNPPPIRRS
Described as above. The following applies: protein: recombinant; (pET28a).

Data set [8] concerns the target T8, Npl3 RRM1/2 Q214A+K217A (Saccharomyces cerevisiae, UniProt Q01560 114-282, Q214A;K217A).
T8 sequence: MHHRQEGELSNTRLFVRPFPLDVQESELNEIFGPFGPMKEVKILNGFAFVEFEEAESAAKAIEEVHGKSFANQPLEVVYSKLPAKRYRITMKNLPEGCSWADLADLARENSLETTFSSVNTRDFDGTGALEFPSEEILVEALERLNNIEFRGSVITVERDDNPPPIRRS
Described as above. The following applies: protein: recombinant; (pET28a).

Data set [9] addresses T9, Npl3 RRM1/2 R130A (Saccharomyces cerevisiae, UniProt Q01560 114-282, R130A).
T9 sequence: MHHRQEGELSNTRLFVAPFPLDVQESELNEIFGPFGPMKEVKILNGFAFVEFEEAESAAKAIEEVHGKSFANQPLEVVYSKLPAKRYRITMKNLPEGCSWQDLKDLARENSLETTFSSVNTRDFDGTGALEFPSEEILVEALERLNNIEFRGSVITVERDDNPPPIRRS
The data set is described as above. The following applies: protein: recombinant; (pET28a).

The target in data set [10] is T10, Npl3 RRM1/2 linker GGG (Saccharomyces cerevisiae, UniProt Q01560 114-282, L195G;P196G;A197G).
T10 sequence: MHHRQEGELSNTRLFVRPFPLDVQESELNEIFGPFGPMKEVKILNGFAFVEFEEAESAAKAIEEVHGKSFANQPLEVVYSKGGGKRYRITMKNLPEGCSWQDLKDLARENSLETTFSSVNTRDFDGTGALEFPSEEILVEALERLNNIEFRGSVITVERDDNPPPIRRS
The data set is described as above. The following applies: protein: recombinant; (pET28a).

The target in data set [11] is T11, Npl3 RRM1/2 linker 3xGGGGS (Saccharomyces cerevisiae, UniProt Q01560 114-194+=GGGGSGGGGSGGGGS+198-282, internal_change).
T11 sequence: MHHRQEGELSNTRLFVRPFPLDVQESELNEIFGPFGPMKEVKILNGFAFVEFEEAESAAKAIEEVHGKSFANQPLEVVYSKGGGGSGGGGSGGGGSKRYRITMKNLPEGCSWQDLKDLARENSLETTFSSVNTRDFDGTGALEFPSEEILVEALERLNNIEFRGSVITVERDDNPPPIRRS
Described as above. The following applies: protein: recombinant; (pET28a).

Data set [12] concerns the target T2, Npl3 RRM1/2. The data set can be described thus: NMR titration; UV melting; protein destabilizes the stem; Tm decreased; ITC at 40 °C in NMR buffer: RRM1 and RRM1/2 25 mM Na2HPO4, 25 mM NaH2PO4 pH 6.9; RRM2 100 mM NaCl, 20 mM NaH2PO4 pH 5.5; NMR titrations at 40 °C (U2 SL I 1D spectra at 303 K). The following applies: protein: recombinant; (pET28a, nickel purification); hairpin.

Data set [13] deals with T1, Npl3 RRM1. The data set can be described thus: NMR titration; ITC at 40 °C in NMR buffer: RRM1 and RRM1/2 25 mM Na2HPO4, 25 mM NaH2PO4 pH 6.9; RRM2 100 mM NaCl, 20 mM NaH2PO4 pH 5.5; NMR titrations at 40 °C (U2 SL I 1D spectra at 303 K). The following applies: protein: recombinant; (pET28a, nickel purification).
The target of data set [14] is T12, Npl3 RRM2 (Saccharomyces cerevisiae, UniProt Q01560 193-282).
T12 sequence: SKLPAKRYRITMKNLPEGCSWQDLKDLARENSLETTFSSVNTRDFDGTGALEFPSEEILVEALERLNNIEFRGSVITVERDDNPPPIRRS
Nature of the data set: ITC; ITC at 40 °C in NMR buffer: RRM1 and RRM1/2 25 mM Na2HPO4, 25 mM NaH2PO4 pH 6.9; RRM2 100 mM NaCl, 20 mM NaH2PO4 pH 5.5; NMR titrations at 40 °C (U2 SL I 1D spectra at 303 K). The following applies: protein: recombinant; (pET28a, nickel purification).

The Kd is the free concentration of one partner at which half of the binding sites on the other are occupied at equilibrium, for simple one-to-one binding. Take AUCCAA (ssRNA) [RRM1 site RNA]: in [1], the Kd was roughly 16.2 µM. Regarding AUCUAGUGGAA (ssRNA) [C4U RNA], the Kd in data set [2] was 1.6 µM. As to AUCCAGUGGAA (ssRNA) [split-iCRAC consensus RNA], the dissociation constant (Kd) was determined as 1.7 µM in [3]; 2.3 µM in [4]; 10.7 µM in data set [5]; 12.8 µM in data set [6]; 7.5 µM in [7]; 0.5 µM in data set [2]. The equilibrium dissociation constant (Kd) in [8] amounted to 15.3 µM; in data set [9], 0.9 µM; in data set [10] it was 3.8 µM; in [11], 6.8 µM.

Turning to AUUCAGUGGAA (ssRNA) [C3U RNA], the dissociation constant Kd in [2] was found to be 1.8 µM.

Turning to GAGCGAAUCUCUUUGCCUUUUGGCUUAGAUC (structured_RNA) [U2 snRNA stem-loop I], the binding result in [12] is recorded as “binds”.

For the molecule UUUUUUUU (ssRNA) [polyU 8mer RNA], the binding result in data set [13] is listed as “no binding”. Take AUCCAGUGAAA (ssRNA) [G9A RNA]: in data set [2], the Kd came to 2.5 µM.

For AGUGGAC (ssRNA) [RRM2 site RNA], the Kd in data set [14] worked out at 2.2 µM.

Consider AUCCAAUGGAA (ssRNA) [G6A RNA], for which, in [2], the Kd was found to be 2.2 µM.

Take AUGGAGUCCAA (ssRNA) [inverted motif RNA]: in data set [2], the Kd turned out to be 1.2 µM. The same measure, in the same setting: with AUCCAGUAGAA (ssRNA) [G8A RNA] the figure was 1.9 µM.
